Consider one molecule from patent US20110039770A1 (PHARMAGAP, published 2011).

Assay [1] addresses T1, PKC-ε (endogenous, IMR-32 lysate) (human, UniProt Q02156 1-737).
T1 construct: Band 1 and Band 2 (alternate splicing variants, not identified further) are kept under one molecule; the band is named in the assay field of each row; also called PKC-epsilon; PKC-ε Band 1
T1 sequence (looked up): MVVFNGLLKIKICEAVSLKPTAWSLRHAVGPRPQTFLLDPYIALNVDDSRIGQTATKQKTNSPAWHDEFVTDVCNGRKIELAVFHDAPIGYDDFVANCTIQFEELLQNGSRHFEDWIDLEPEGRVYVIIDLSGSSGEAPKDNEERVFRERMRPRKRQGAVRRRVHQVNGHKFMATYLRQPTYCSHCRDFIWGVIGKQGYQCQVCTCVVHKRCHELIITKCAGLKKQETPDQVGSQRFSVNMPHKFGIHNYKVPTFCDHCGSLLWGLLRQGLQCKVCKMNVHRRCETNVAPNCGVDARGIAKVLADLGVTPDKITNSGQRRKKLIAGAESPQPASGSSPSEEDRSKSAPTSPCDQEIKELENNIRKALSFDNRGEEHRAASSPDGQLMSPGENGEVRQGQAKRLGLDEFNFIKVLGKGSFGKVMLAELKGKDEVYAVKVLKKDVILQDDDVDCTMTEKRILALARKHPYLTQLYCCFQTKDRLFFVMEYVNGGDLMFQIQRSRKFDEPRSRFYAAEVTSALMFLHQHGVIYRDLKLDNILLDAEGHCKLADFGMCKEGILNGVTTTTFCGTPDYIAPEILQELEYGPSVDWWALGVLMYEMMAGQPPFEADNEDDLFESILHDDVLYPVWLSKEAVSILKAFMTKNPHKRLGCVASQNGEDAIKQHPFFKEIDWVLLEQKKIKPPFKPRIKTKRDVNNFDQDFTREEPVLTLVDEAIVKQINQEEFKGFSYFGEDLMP
Nature of the assay: WB competition Protocol B, IMR-32 extract, vs anti-PKC-ε Ab; PKC-ε Band 2; 50 µg peptide. As to the method:
(§1) The ability of the peptides PRE 2 and PRE 3 (see Table 4) to interfere with the binding of a PKC-α-specific polyclonal antibody (Santa Cruz Biotechnology, Inc.) to PKC-α was determined using a modified version of the protocol outlined above in which the test peptide was added directly to the cell extract prior to electrophoresis at a concentration of either 5× or 15× the concentration of the protein applied to each well of the gel for the Western blots (20 μg).
(§2) Peptides PRE 2, PRE 3 and PRE 4 (see Table 4) were tested for their ability to interfere with the binding of isoform-specific polyclonal antibodies (Santa Cruz Biotechnology, Inc.) to […] using the general protocol described in Example 3. Two bands, representing alternate splicing variants of PKC-ε, were identified on the Western blot using this anti-PKC-ε antibody.

Assay [2] addresses T2, PKC-βI (purified isoform) (Homo sapiens (Human), UniProt P05771 2-671).
T2 construct: also called PKC-beta I; PKC beta 1
Nature of the assay: competitive ELISA, coated purified PKC-βI, vs anti-PKC βI (SC-209); PRE 100 µM. Background: ELISA stands for enzyme-linked immunosorbent assay.

Assay [3] concerns the target T1, PKC-ε (endogenous, IMR-32 lysate). Nature of the assay: WB competition Protocol B, IMR-32 extract, vs anti-PKC-ε Ab; PKC-ε Band 1; 20 µg peptide. As to the method: as §1, §2
Assay [4] concerns the target T3, PKC-α (purified isoform) (Homo sapiens (Human), UniProt P17252 2-672).
T3 construct: also called purified PKC-alpha; commercially purified PKC-alpha
Nature of the assay: competitive ELISA, coated purified PKC-α, vs anti-PKC α (SC-208); PRE 50 µM. The procedure, abridged: (§3)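 Wells were coated overnight at 4 °C with purified PKC isoform at 250 ng/mL in PBSN, blocked 1 h at 37 °C, and then given PRE diluted in PBSN from a 20 mM DMSO stock for 1 h at room temperature. The AP-conjugated anti-rabbit antibody was developed with pNPP (pH 9.8) and read at 405 nm.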

Assay [5] has as its target T4, PKC-βII (purified isoform) (Homo sapiens (Human), UniProt P05771 2-621).
T4 construct: also called PKC-beta II; PKC beta 2
Kind of assay: competitive ELISA, coated purified PKC-βII, vs anti-PKC βII (SC-210); PRE 50 µM. The method, then:
Greiner 96 well ELISA plates were coated with the appropriate PKC isoform diluted in PBSN (PBS with Calcium/Magnesium+0.05% Sodium azide w/w). 50 μL/well at 250 ng/mL was used. Control wells contained PBSN only. Plates were incubated overnight at 4° C.
The plates were washed 3 times with 200 μL of dH₂O per well, then 100 μL of blocking solution was added per well and the plate incubated for 1 h at 37° C. The washing steps with dH₂O were repeated and 50 μL of the appropriate PRE solution (PRE stock solution [20 mM in DMSO] diluted in PBSN) was added and the plate incubated for 1 h at room temperature.
50 μL of 1:1000 dilution of Alkaline Phosphatase (AP) conjugated antibody (anti-rabbit for all except zeta, which was anti-goat) was then added and the plate incubated for 1 h at room temperature. Washing with dH₂O was then repeated. Finally, 100 μL of pNPP solution in pNPP buffer (2 mM MgCl₂, 100 mM Sodium bicarbonate in water, pH 9.8) was added to all wells and incubated for 8 minutes for α, βI, βII ε, and ζ, or for 15-20 mins for δ (until sufficient coloration is observed). The reaction was stopped by addition of Stop solution (2N NaOH) and the absorbance at 405 nm was read on a Galaxy Plate reader.

Another assay addresses T5, PKC-δ (purified isoform).
T5 construct: also called PKC-delta
Kind of assay: competitive ELISA, coated purified PKC-δ, vs anti-PKC δ (SC-213); PRE 100 µM. The procedure, abridged:
as §3

The target in assay [6] is T3, PKC-α (purified isoform). Nature of the assay: competitive ELISA, coated purified PKC-α, vs anti-PKC α (SC-208); PRE 100 µM. The method, boiled down:
as §3

T2 sequence (P05771 2-671 limits assumed): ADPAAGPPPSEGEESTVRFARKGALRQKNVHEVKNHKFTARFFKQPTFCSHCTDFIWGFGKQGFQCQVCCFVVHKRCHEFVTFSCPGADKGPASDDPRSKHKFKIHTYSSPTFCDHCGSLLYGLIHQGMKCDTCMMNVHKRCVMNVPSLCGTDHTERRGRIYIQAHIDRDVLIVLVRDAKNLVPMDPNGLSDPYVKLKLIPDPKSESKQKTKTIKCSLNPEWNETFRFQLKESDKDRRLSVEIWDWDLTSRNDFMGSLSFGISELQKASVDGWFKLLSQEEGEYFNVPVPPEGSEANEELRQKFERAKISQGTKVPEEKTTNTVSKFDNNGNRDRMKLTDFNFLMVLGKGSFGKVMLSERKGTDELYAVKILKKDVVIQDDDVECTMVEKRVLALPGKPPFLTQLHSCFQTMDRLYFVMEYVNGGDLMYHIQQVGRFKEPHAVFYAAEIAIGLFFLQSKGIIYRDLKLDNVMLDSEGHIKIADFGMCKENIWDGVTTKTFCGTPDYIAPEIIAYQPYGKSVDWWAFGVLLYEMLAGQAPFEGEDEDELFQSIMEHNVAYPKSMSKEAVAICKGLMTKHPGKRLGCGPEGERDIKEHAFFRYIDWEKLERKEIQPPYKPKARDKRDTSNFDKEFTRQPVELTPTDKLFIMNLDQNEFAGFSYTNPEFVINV
T4 sequence (P05771 other isoform, or with tags, fused parts or gaps limits assumed): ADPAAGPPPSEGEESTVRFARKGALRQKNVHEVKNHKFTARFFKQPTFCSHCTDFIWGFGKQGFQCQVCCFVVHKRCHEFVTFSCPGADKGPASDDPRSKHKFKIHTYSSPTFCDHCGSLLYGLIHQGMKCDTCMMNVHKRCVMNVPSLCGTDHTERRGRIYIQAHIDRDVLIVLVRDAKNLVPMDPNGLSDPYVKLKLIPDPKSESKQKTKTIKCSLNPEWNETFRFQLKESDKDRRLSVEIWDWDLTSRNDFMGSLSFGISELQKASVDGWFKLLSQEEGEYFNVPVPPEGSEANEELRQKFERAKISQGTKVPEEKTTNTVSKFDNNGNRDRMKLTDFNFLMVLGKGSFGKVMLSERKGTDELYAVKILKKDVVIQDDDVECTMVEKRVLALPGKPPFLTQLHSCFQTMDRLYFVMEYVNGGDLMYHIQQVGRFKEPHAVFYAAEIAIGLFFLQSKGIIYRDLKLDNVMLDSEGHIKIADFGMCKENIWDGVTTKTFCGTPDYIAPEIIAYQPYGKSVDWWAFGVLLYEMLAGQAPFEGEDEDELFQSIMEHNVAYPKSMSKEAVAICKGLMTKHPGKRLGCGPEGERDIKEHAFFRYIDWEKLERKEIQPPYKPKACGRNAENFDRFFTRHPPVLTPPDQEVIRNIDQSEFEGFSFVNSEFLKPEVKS
T5 sequence (Q05655 whole entry, stated change not applied, canonical isoform): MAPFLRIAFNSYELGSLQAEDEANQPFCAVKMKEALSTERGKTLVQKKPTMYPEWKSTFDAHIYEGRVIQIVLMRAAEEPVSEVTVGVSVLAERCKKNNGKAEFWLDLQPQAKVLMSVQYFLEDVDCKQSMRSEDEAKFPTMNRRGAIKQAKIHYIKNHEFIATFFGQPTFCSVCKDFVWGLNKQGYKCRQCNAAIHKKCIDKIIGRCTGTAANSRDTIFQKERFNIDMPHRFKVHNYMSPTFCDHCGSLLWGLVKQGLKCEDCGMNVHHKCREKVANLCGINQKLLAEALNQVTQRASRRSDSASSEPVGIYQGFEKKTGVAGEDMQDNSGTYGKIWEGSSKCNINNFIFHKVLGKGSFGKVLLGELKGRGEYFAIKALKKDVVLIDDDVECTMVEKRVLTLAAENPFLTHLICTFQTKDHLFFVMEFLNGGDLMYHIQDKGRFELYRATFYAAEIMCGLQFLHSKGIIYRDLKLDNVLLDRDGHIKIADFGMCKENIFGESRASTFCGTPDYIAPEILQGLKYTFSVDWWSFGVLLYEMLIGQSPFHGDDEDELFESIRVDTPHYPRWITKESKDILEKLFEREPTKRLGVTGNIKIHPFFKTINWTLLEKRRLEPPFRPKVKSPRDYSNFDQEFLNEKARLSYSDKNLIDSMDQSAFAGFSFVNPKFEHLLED

In the case of Ac-KDAQNLIGISI-NH2 (also called peptide PRE 4) [PRE 4], the “Band Intensity” value in assay [1] was 0; in assay [3], 184. For the same molecule, the figures for the “Inhibition (%)” value in assay [1] and in assay [3] were 100% and 42.9%, respectively. Besides, the “Relative Intensity (%)” value in assay [1] was 0%; in assay [3], 57.1%. In addition, the “relative binding capacity (100-%n, DMSO subtracted)” value came to 15.7% in assay [2]; 6.46% with PKC-α (purified isoform) [4]; 2.69% in assay [5]; 30.7% with PKC-δ (purified isoform); 21.9% with PKC-α (purified isoform) [6].
